Experimental data taken from patent US20220411483A1 (Chugai, published 2022).
Residue numbers refer to the chain shown, from its start.

T1: FcγRIIa R type extracellular domain with C-terminal His tag (human, UniProt P12318 34-217)
T1 construct: extracellular domain; also called FcgRIIaR; not shown: His tag at the C terminus
T1 sequence (looked up): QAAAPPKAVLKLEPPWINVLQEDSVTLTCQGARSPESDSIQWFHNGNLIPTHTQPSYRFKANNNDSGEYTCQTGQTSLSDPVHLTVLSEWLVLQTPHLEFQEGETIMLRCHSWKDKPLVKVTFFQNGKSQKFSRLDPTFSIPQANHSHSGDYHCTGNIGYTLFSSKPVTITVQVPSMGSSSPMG

T2: FcγRIIb extracellular domain with C-terminal His tag (human, UniProt P31994 43-217)
T2 construct: extracellular domain; also called FcgRIIb; not shown: His tag at the C terminus
T2 sequence (looked up): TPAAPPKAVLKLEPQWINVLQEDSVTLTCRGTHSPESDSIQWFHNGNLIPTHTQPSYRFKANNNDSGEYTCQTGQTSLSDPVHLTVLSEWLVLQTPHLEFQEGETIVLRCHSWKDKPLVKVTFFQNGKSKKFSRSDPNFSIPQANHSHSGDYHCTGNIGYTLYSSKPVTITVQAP

T3: FcgRIIb (human, UniProt P31994 43-217)
T3 construct: extracellular domain; also called FcγRIIb
T3 sequence (looked up): T2 sequence (looked up)

T4: FcgRIIaR (human, UniProt P12318 34-217)
T4 construct: extracellular domain; also called FcγRIIa R type; FcγRIIa (R type)
T4 sequence (looked up): T1 sequence (looked up)

B1: IL6R-BP262/IL6R-L (antibody, human IgG1, kappa, name in EU numbering)
heavy: QVQLQESGPGLVKPSETLSLTCAVSGHSISHDHAWSWVRQPPGEGLEWIGFISYSGITNYNPSLQGRVTISRDNSKNTLYLQMNSLRAEDTAVYYCARSLARTTAMDYWGEGTLVTVSSASTKGPSVFPLAPSSKSTSGGTAALGCLVKDYFPEPVTVSWNSGALTSGVHTFPAVLQSSGLYSLSSVVTVPSSSLGTQTYICNVNHKPSNTKVDKKVEPKSCDKTHTCPPCPAPELLGDDSVFLFPPKPKDTLMISRTPEVTCVVVDVSEEDGEVKFNWYVDGVEVHNAKTKPREEQYNSTYRVVSVLTVLHQDWLNGKEYKCKVSNKALPAPIEKTISKAKGQPREPQVYTLPPSRDELTKNQVSLTCLVKGFYPSDIAVEWESNGQPENNYKTTPPVLDSDGSFFLYSKLTVDKSRWQQGNVFSCSVMHEALHNHYTQESLSLSP
light: not shown
notes: human IgG1
B2: IL6R-BP481/IL6R-L (antibody, human IgG1, kappa, name in EU numbering)
heavy: B1 heavy with E235D, V266I, S269A
light: not shown
notes: human IgG1
B3: IL6R-BP479/IL6R-L (antibody, human IgG1, kappa, name in EU numbering)
heavy: B1 heavy with E235D, V266I, V268L, S269A
light: not shown
notes: human IgG1
B4: IL6R-BP269/IL6R-L (antibody, human IgG1, kappa, name in EU numbering)
heavy: B1 heavy with Y298D
light: not shown
notes: human IgG1
B5: IL6R-P700/IL6R-L (antibody, human IgG1, kappa)
heavy: B1 heavy with E235D, L236A, D239G, V266I, S269R, E441K
light: not shown
B6: IL6R-P649/IL6R-L (antibody, human IgG1, kappa)
heavy: B1 heavy with E235D, V266I, D267V, S269A, Y298D, A332R, P398M, E441K
light: not shown
B7: IL6R-P697/IL6R-L (antibody, human IgG1, kappa)
heavy: B1 heavy with E235D, D239K, V266I, S269R, E441K
light: not shown
B8: IL6R-P650/IL6R-L (antibody, human IgG1, kappa)
heavy: B1 heavy with E235D, V266I, S269K, Y298D, A332R, P398M, E441K
light: not shown
B9: IL6R-P701/IL6R-L (antibody, human IgG1, kappa)
heavy: B1 heavy with E235D, L236N, D239G, V266I, S269R, E441K
light: not shown
B10: IL6R-P696/IL6R-L (antibody, human IgG1, kappa)
heavy: B1 heavy with E235D, D239R, V266I, S269R, E441K
light: not shown
B11: IL6R-P664/IL6R-L (antibody, human IgG1, kappa, N297A)
heavy: B1 heavy with E235D, D239G, V266I, S269A, N299A, E441K
light: not shown
B12: IL6R-P651/IL6R-L (antibody, human IgG1, kappa)
heavy: B1 heavy with E235D, V266I, S269R, Y298D, A332R, P398M, E441K
light: not shown

Biological target: T1, FcγRIIa R type extracellular domain …
Test: SPR, antibody captured, FcgR analyte

In order of falling Kd:
1. B4  2200 nM
2. B1  2000 nM
3. B3  900 nM
4. B2  400 nM

Biological target: T5, FcγRIa extracellular domain with C-terminal His tag (human, UniProt P12314 16-292)
T5 construct: also called FcgRIa; CD64; not shown: His tag at the C terminus
Test: SPR, antibody captured, FcgR analyte

T5 sequence (P12314 16-292): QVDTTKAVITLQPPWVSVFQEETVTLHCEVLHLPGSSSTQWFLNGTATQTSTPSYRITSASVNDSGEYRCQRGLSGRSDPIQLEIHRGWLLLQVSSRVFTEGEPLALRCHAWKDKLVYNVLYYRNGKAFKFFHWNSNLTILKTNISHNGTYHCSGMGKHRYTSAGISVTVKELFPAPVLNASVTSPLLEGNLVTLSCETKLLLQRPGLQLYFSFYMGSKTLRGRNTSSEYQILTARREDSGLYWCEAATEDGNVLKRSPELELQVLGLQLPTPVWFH

In order of falling Kd:
1. B4  14 nM
2. B1  10 nM
3. B3  5.3 nM
4. B2  1 nM

Biological target: T2, FcγRIIb extracellular domain with …
Test: SPR, antibody captured, FcgR analyte

In order of rising Kd:
1. B2  19 nM
2. B3  56 nM
3. B4  110 nM
4. B1  120 nM

Biological target: T3, FcgRIIb
Test: SPR, amount bound per captured antibody

In order of rising “Relative FcgRIIb-binding Activity” value:
1. B6  6.9 IL6R-G1d/IL6R-L=100
2. B7  28.7 IL6R-G1d/IL6R-L=100
3. B11  33.9 IL6R-G1d/IL6R-L=100
4. B5  38.1 IL6R-G1d/IL6R-L=100
5. B9  47.6 IL6R-G1d/IL6R-L=100
6. B10  73.7 IL6R-G1d/IL6R-L=100
7. B8  155 IL6R-G1d/IL6R-L=100
8. B12  168 IL6R-G1d/IL6R-L=100

Biological target: T4, FcgRIIaR
Test: SPR, amount bound per captured antibody

In order of rising “Relative FcgRIIaR-binding Activity” value:
1. B6  2.9 IL6R-G1d/IL6R-L=100
2. B7  3.6 IL6R-G1d/IL6R-L=100
3. B5  5.8 IL6R-G1d/IL6R-L=100
4. B10  6.1 IL6R-G1d/IL6R-L=100
5. B9  7 IL6R-G1d/IL6R-L=100
6. B11  10.8 IL6R-G1d/IL6R-L=100
7. B8  41.6 IL6R-G1d/IL6R-L=100
8. B12  75.7 IL6R-G1d/IL6R-L=100

Biological target: T1, FcγRIIa R type extracellular domain …
Test: SPR; KD of IL6R-B3/IL6R-L divided by KD of variant

In order of rising “Relative FcgRIIaR-binding Activity” value:
1. B1  0.5
2. B4  0.5
3. B3  1.2
4. B2  2.7

Biological target: T2, FcγRIIb extracellular domain with …
Test: SPR; KD of IL6R-B3/IL6R-L divided by KD of variant

In order of falling “Relative FcgRIIb-binding Activity” value:
1. B2  159
2. B3  55.3
3. B4  27.3
4. B1  25.8
